Paper PMC10200994, “A family-wide assessment of latent STAT transcription factor interactions reveals divergent dimer repertoires” (The Journal of Biological Chemistry, 2023)

B1: STAT5A (unphosphorylated, wild-type), fluorophore fusion (natural protein, UniProt P42229 1-794, looked up)
chain: MAGWIQAQQLQGDALRQMQVLYGQHFPIEVRHYLAQWIESQPWDAIDLDNPQDRAQATQLLEGLVQELQKKAEHQVGEDGFLLKIKLGHYATQLQKTYDRCPLELVRCIRHILYNEQRLVREANNCSSPAGILVDAMSQKHLQINQTFEELRLVTQDTENELKKLQQTQEYFIIQYQESLRIQAQFAQLAQLSPQERLSRETALQQKQVSLEAWLQREAQTLQQYRVELAEKHQKTLQLLRKQQTIILDDELIQWKRRQQLAGNGGPPEGSLDVLQSWCEKLAEIIWQNRQQIRRAEHLCQQLPIPGPVEEMLAEVNATITDIISALVTSTFIIEKQPPQVLKTQTKFAATVRLLVGGKLNVHMNPPQVKATIISEQQAKSLLKNENTRNECSGEILNNCCVMEYHQATGTLSAHFRNMSLKRIKRADRRGAESVTEEKFTVLFESQFSVGSNELVFQVKTLSLPVVVIVHGSQDHNATATVLWDNAFAEPGRVPFAVPDKVLWPQLCEALNMKFKAEVQSNRGLTKENLVFLAQKLFNNSSSHLEDYSGLSVSWSQFNRENLPGWNYTFWQWFDGVMEVLKKHHKPHWNDGAILGFVNKQQAHDLLINKPDGTFLLRFSDSEIGGITIAWKFDSPERNLWNLKPFTTRDFSIRSLADRLGDLSYLIYVFPDRPKDEVFSKYYTPVLAKAVDGYVKPQIKQVVPEFVNASADAGGSSATYMDQAPSPAVCPQAPYNMYPQNPDHVLDQDGEFDLDETMDVARHVEELLRRPMDSLDSRLSPPAGLFTSARGSLS
notes: STAT5A, full-length wild type; One molecule for bait and test copies; also called U-STAT5A; STAT5A-NES; source: HeLa, transiently transfected, in cells; not shown: mCherry (test copy) or mEGFP (bait copy), C-terminal, kept

Assays:
Assay in all cases: co-localization assay (relocalisation of a test protein by a compartment-targeted bait, fluorescence microscopy); HeLa cells co-expressing bait (STAT-NES or STAT-NLS, or wild-type STAT2 with its own export activity; green) and test protein without heterologous signal (red); no cytokine; fixed 20 h after transfection; Pearson correlation coefficient rP in cells with equimolar to 4-fold excess of bait
[1] = molecular target: T1, STAT2 (unphosphorylated, wild-type), fluorophore fusion (UniProt P52630 1-851); details: partners not purified
T1 construct: STAT2, full-length wild type; used as bait through its own nuclear export activity; No heterologous NES or NLS on wild-type STAT2; also called U-STAT2; S2; source: HeLa, transiently transfected, in cells; not shown: mEGFP or mCherry, C-terminal, kept
T1 sequence (P52630 whole entry, the tested form may be a part): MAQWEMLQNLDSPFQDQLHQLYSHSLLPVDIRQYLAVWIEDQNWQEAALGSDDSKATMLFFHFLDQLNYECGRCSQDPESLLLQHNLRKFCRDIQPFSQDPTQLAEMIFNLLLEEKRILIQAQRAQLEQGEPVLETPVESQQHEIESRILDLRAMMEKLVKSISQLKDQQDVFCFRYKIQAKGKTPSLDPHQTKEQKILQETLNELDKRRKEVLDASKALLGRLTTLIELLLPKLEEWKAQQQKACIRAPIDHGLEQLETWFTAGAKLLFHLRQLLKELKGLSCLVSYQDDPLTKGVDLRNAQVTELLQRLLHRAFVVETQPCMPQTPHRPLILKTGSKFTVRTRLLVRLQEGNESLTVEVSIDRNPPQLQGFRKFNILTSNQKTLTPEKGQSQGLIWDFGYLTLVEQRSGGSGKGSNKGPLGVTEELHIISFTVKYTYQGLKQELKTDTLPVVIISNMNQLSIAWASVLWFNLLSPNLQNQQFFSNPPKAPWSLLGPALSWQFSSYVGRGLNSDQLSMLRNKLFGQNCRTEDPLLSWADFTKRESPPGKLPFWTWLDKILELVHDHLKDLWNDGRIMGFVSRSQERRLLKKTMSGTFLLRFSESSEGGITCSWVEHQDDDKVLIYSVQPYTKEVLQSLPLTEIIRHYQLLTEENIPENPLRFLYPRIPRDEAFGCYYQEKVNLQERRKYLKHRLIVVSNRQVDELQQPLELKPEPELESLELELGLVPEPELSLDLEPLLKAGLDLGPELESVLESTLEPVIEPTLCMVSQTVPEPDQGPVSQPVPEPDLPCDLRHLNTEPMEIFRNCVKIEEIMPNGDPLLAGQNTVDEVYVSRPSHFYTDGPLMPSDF

[2] = molecular target: the molecule itself
[3] = molecular target: B1; details: partners not purified

Pearson correlation coefficient rP (co-localization) [1]	Pearson correlation coefficient rP (co-localization) [3]	Binder	Pearson correlation coefficient rP (co-localization) [2]
0.97	–	STAT1 (unphosphorylated, wild-type), fluorophore fusion (natural protein, UniProt P42224 1-750, looked up, STAT1, full-length wild type; One molecule for bait and test copies; Three to five further heterologous residues flank the NES or NLS; cloning details only on request; also called U-STAT1; S1; source: HeLa, transiently transfected, in cells; not shown: mCherry (test copy) or mEGFP (bait copy), C-terminal, kept) MSQWYELQQLDSKFLEQVHQLYDDSFPMEIRQYLAQWLEKQDWEHAANDVSFATIRFHDLLSQLDDQYSRFSLENNFLLQHNIRKSKRNLQDNFQEDPIQMSMIIYSCLKEERKILENAQRFNQAQSGNIQSTVMLDKQKELDSKVRNVKDKVMCIEHEIKSLEDLQDEYDFKCKTLQNREHETNGVAKSDQKQEQLLLKKMYLMLDNKRKEVVHKIIELLNVTELTQNALINDELVEWKRRQQSACIGGPPNACLDQLQNWFTIVAESLQQVRQQLKKLEELEQKYTYEHDPITKNKQVLWDRTFSLFQQLIQSSFVVERQPCMPTHPQRPLVLKTGVQFTVKLRLLVKLQELNYNLKVKVLFDKDVNERNTVKGFRKFNILGTHTKVMNMEESTNGSLAAEFRHLQLKEQKNAGTRTNEGPLIVTEELHSLSFETQLCQPGLVIDLETTSLPVVVISNVSQLPSGWASILWYNMLVAEPRNLSFFLTPPCARWAQLSEVLSWQFSSVTKRGLNVDQLNMLGEKLLGPNASPDGLIPWTRFCKENINDKNFPFWLWIESILELIKKHLLPLWNDGCIMGFISKERERALLKDQQPGTFLLRFSESSREGAITFTWVERSQNGGEPDFHAVEPYTKKELSAVTFPDIIRNYKVMAAENIPENPLKYLYPNIDKDHAFGKYYSRPKEAPEPMELDGPKGTGYIKTELISVSEVHPSRLQTTDNLLPMSPEEFDEVSRIVGSVEFDSMMNTV	–
–	0.97	STAT5B (unphosphorylated, wild-type), fluorophore fusion (natural protein, UniProt P51692 1-787, looked up, STAT5B, full-length wild type; One molecule for bait and test copies; also called U-STAT5B; STAT5B-NES; source: HeLa, transiently transfected, in cells; not shown: mCherry (test copy) or mEGFP (bait copy), C-terminal, kept) MAVWIQAQQLQGEALHQMQALYGQHFPIEVRHYLSQWIESQAWDSVDLDNPQENIKATQLLEGLVQELQKKAEHQVGEDGFLLKIKLGHYATQLQNTYDRCPMELVRCIRHILYNEQRLVREANNGSSPAGSLADAMSQKHLQINQTFEELRLVTQDTENELKKLQQTQEYFIIQYQESLRIQAQFGPLAQLSPQERLSRETALQQKQVSLEAWLQREAQTLQQYRVELAEKHQKTLQLLRKQQTIILDDELIQWKRRQQLAGNGGPPEGSLDVLQSWCEKLAEIIWQNRQQIRRAEHLCQQLPIPGPVEEMLAEVNATITDIISALVTSTFIIEKQPPQVLKTQTKFAATVRLLVGGKLNVHMNPPQVKATIISEQQAKSLLKNENTRNDYSGEILNNCCVMEYHQATGTLSAHFRNMSLKRIKRSDRRGAESVTEEKFTILFESQFSVGGNELVFQVKTLSLPVVVIVHGSQDNNATATVLWDNAFAEPGRVPFAVPDKVLWPQLCEALNMKFKAEVQSNRGLTKENLVFLAQKLFNNSSSHLEDYSGLSVSWSQFNRENLPGRNYTFWQWFDGVMEVLKKHLKPHWNDGAILGFVNKQQAHDLLINKPDGTFLLRFSDSEIGGITIAWKFDSQERMFWNLMPFTTRDFSIRSLADRLGDLNYLIYVFPDRPKDEVYSKYYTPVPCESATAKAVDGYVKPQIKQVVPEFVNASADAGGGSATYMDQAPSPAVCPQAHYNMYPQNPDSVLDTDGDFDLEDTMDVARRVEELLGRPMDSQWIPHAQS	≥ 0.94
–	–	STAT4 (unphosphorylated, wild-type), fluorophore fusion (natural protein, UniProt Q14765 1-748, looked up, STAT4, full-length wild type; One molecule for bait and test copies; also called U-STAT4; STAT4-NES; source: HeLa, transiently transfected, in cells; not shown: mCherry (test copy) or mEGFP (bait copy), C-terminal, kept) MSQWNQVQQLEIKFLEQVDQFYDDNFPMEIRHLLAQWIENQDWEAASNNETMATILLQNLLIQLDEQLGRVSKEKNLLLIHNLKRIRKVLQGKFHGNPMHVAVVISNCLREERRILAAANMPVQGPLEKSLQSSSVSERQRNVEHKVAAIKNSVQMTEQDTKYLEDLQDEFDYRYKTIQTMDQSDKNSAMVNQEVLTLQEMLNSLDFKRKEALSKMTQIIHETDLLMNTMLIEELQDWKRRQQIACIGGPLHNGLDQLQNCFTLLAESLFQLRRQLEKLEEQSTKMTYEGDPIPMQRTHMLERVTFLIYNLFKNSFVVERQPCMPTHPQRPLVLKTLIQFTVKLRLLIKLPELNYQVKVKASIDKNVSTLSNRRFVLCGTNVKAMSIEESSNGSLSVEFRHLQPKEMKSSAGGKGNEGCHMVTEELHSITFETQICLYGLTIDLETSSLPVVMISNVSQLPNAWASIIWYNVSTNDSQNLVFFNNPPPATLSQLLEVMSWQFSSYVGRGLNSDQLHMLAEKLTVQSSYSDGHLTWAKFCKEHLPGKSFTFWTWLEAILDLIKKHILPLWIDGYVMGFVSKEKERLLLKDKMPGTFLLRFSESHLGGITFTWVDHSESGEVRFHSVEPYNKGRLSALPFADILRDYKVIMAENIPENPLKYLYPDIPKDKAFGKHYSSQPCEVSRPTERGDKGYVPSVFIPISTIRSDSTEPHSPSDLLPMSPSVYAVLRENLSPTTIETAMKSPYSAE	≥ 0.94
–	–	B1	≥ 0.94
